Measured values as given in PMC12946210.

Biological target: FBH1 (F-box helicase 1, isoform 4);SKP1;CUL1;RBX1 (human;human;human;human, UniProt Q2TAK1;P63208;Q13616;P62877 1-969;1-163;1-776;1-108, |||)
Experiment: EMSA

B1: Lag gap fork (mixed)
DNA 1: CTCAGGACTCAGTTCGTCAGCCCTTGACAGCGATGGAAGC
DNA 2: CGAAGGTAGCGACAGTTCCCCTGACGAACTGAGTCCTGAG
DNA 3: GCTTCCATCGCTCTCAAG
DNA 4: TCGCTACCTTCG
Question: Does B1 bind?
Answer: binds
